Earlier results as cited in PMC10317158.

How the values were obtained:
[1] = target: RNA polymerase II CTD pSer2/5 peptide CTD (Saccharomyces cerevisiae) (UniProt P04050)
[2] = target: Mpp6 NIM (Saccharomyces cerevisiae) (UniProt P53725)
[3] = target: Sen1 NIM2 (Saccharomyces cerevisiae) (UniProt Q00416)
[4] = target: RNA polymerase II CTD pSer2 peptide CTD (Saccharomyces cerevisiae) (UniProt P04050)
[5] = target: RNA polymerase II CTD pSer2/7 peptide CTD (Saccharomyces cerevisiae) (UniProt P04050)
[6] = target: RNA polymerase II CTD pThr4 peptide CTD (Saccharomyces cerevisiae) (UniProt P04050)

Nrd1 CID (from UniProt P53617)
Kd [1]: 16 µM
Kd [2]: 13.6 µM
Kd [3]: 1750 nM

Pcf11 CID (from UniProt P39081)
Kd [4]: 115 µM

Rtt103 CID (from UniProt Q05543)
Kd [5]: 1600 nM
Kd [6]: 6 µM
